# Data published in patent US20190359719A1 (SORRENTO THERAPEUTICS, published 2019).
# Changes are numbered by the printed parent chain.
# B1: El-A10 (E1 derived anti-c-Met antibody) (antibody, V domains shown)
# VH: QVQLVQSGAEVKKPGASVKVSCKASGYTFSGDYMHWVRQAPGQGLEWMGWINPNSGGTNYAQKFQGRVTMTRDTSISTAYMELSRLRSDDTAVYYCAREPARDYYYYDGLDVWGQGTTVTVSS
# VL: QSVVTQPPSVSGAPGQRVTISCLGSASNIGAGHDVHWYQQLPGTAPKLLIYGNSNRPSGVPDRFSGSKSGTSASLAITGLQAEDEADYYCQSYSSSLSAYVFGTGTKVTVL
# notes: The two labels are matched by their suffix only; Detected with anti-human IgG (gamma-chain specific); also called E1-A10; GCE-A10
# B2: El-A13 (E1 derived anti-c-Met antibody) (antibody, V domains shown)
# VH: QVQLVQSGAEVKKPGASVKVSCKASGYTFSGDYLHWVRQAPGQGLEWMGWINPNSGGTNYAQKFQGRVTMTRDTSISTAYMELSRLRSDDTAVYYCAREPARDYYYYDGLDVWGQGTTVTVSS
# VL: B1 VL
# notes: Label 'El-A13' matched to 'GCE-A13' by suffix only; Detected with anti-human IgG; also called E1-A13; GCE-A13
# B3: El-A18 (E1 derived anti-c-Met antibody) (antibody, V domains shown)
# VH: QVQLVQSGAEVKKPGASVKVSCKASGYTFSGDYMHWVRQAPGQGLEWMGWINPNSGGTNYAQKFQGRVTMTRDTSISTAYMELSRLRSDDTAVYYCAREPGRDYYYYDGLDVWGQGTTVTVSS
# VL: B1 VL with L23I
# notes: Label 'El-A18' matched to 'GCE-A18' by suffix only; Detected with anti-human IgG; also called E1-A18; GCE-A18
# B4: El-A11 (E1 derived anti-c-Met antibody) (antibody, V domains shown)
# VH: B2 VH with Y27F, L34I
# VL: B1 VL with A26S, P57I, V101L
# notes: Label 'El-A11' matched to 'GCE-A11' by suffix only; Detected with anti-human IgG; also called E1-A11; GCE-A11
# B5: El-B19 (E1 derived anti-c-Met antibody) (antibody, V domains shown)
# VH: B2 VH with Y27F, L34I, A101G
# VL: B1 VL with Y100V, V101L
# notes: Label 'El-B19' matched to 'GCE-B19' by suffix only; Detected with anti-human IgG; also called E1-B19; GCE-B19
# B6: El-B11 (E1 derived anti-c-Met antibody) (antibody, V domains shown)
# VH: B2 VH with L34I
# VL: B1 VL with L23I, A26S, H33Y, P57I, Y100V, V101L
# notes: Label 'El-B11' matched to 'GCE-B11' by suffix only; Detected with anti-human IgG; also called E1-B11; GCE-B11
# B7: El-BR1 (E1 derived anti-c-Met antibody) (antibody, V domains shown)
# VH: B2 VH with Y27S
# VL: B1 VL with H33Y, Y100V, V101L
# notes: Label 'El-BR1' matched to 'GCE-BR1' by suffix only; Detected with anti-human IgG; also called E1-BR1; GCE-BR1
# B8: El-B13 (E1 derived anti-c-Met antibody) (antibody, V domains shown)
# VH: B2 VH with Y27S, L34I
# VL: B1 VL with Y100V, V101L
# notes: Label 'El-B13' matched to 'GCE-B13' by suffix only; Detected with anti-human IgG; also called E1-B13; GCE-B13
# B9: El-A14 (E1 derived anti-c-Met antibody) (antibody, V domains shown)
# VH: B2 VH with L34I
# VL: B1 VL with L23I, A26S
# notes: Label 'El-A14' matched to 'GCE-A14' by suffix only; Detected with anti-human IgG; also called E1-A14; GCE-A14
# B10: A1-24 anti-c-Met antibody (antibody, V domains shown)
# VH: QVQLQESGPGLVKPSQTLSLTCTVSGGSISSGGYYWSWIRQHPGKGLEWIGESTHSGSTNYNPSLESRVTISVDTSKNQFSLKLSSVTAADTAVYYCARGRDSYDFDAWGQGTLVTVSS
# VL: LPVLTQPASVSGSPGQSITISCTGTSFDVGGYNYVSWYQQHPGKAPKLMIYDVSDRPSGVSTRFSGSKSGNTASLTISGLQAEDEADYYCSSFRSSAALVVFGGGTKLTVL
# notes: Detected with anti-human IgG (gamma-chain specific)
# B11: A1-9 anti-c-Met antibody (antibody, V domains shown)
# VH: B10 VH with S53I, T54S, E66K, S103G, D105Y, F106L, A108Q
# VL: B10 VL with F27S, D52N, A97S
# notes: as for B10
# B12: A1-4 anti-c-Met antibody (antibody, V domains shown)
# VH: B10 VH with T54S, E66K, S103G, D105Y
# VL: B10 VL with F27S, N33P, D52V, F93Y, A97S, K107Q
# notes: as for B10
# B13: A1-32 anti-c-Met antibody (antibody, V domains shown)
# VH: B10 VH with E66D, S103G, D105Y, F106L, A108Q
# VL: B10 VL with N33P
# notes: as for B10
# B14: A1-2 anti-c-Met antibody (antibody, V domains shown)
# VH: B10 VH with E66K, S103G
# VL: B10 VL with A97S
# notes: as for B10
# B15: A1-6 anti-c-Met antibody (antibody, V domains shown)
# VH: B10 VH with S53I, E66K, S103G, F106I
# VL: B10 VL with F27W, N33P, F93Y, S96V, A97S
# notes: as for B10
# Target: T1, c-Met (HGF receptor) expressed on cells (human, UniProt P08581 25-1390)
# T1 construct: whole, on cells; Endogenous c-Met on tumour cell lines and on human umbilical vein endothelial cells
# T1 sequence (P08581 25-1390): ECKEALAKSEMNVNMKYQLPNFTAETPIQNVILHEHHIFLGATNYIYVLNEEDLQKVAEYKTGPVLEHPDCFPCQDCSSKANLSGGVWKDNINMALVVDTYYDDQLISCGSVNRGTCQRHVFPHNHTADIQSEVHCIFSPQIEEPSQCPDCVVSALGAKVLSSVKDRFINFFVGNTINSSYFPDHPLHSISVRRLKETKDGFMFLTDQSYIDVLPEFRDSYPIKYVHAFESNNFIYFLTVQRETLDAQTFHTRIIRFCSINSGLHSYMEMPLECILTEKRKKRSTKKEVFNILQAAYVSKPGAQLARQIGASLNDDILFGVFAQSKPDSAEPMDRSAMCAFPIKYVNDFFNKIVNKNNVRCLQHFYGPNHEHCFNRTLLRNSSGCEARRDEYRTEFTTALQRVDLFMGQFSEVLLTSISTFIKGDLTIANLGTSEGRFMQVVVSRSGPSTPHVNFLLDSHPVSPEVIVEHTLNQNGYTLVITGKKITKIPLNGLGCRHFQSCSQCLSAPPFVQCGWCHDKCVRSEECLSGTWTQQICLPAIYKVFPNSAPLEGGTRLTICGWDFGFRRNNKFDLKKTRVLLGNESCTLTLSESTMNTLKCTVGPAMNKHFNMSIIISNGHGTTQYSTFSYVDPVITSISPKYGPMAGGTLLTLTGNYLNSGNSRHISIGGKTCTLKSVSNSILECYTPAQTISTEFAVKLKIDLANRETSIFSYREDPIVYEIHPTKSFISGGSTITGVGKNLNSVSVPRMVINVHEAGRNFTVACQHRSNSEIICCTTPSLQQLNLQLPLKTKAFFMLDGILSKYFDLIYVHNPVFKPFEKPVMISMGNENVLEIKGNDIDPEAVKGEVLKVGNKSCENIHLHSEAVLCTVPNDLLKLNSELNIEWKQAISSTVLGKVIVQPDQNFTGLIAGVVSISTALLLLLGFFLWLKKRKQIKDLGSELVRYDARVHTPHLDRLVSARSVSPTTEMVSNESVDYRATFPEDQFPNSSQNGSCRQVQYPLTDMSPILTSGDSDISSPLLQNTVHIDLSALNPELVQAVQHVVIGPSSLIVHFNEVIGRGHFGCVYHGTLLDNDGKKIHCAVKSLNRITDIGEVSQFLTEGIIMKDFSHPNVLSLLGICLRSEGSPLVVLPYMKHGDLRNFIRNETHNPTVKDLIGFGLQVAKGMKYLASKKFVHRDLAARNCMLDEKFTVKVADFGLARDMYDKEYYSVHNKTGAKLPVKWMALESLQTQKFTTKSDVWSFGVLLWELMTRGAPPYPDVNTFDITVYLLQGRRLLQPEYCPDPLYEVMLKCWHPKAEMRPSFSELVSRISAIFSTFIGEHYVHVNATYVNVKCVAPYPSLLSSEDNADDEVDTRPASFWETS
# Experiment: flow cytometry, antibody titration on SK-O-V3 ovarian cancer cells, PE anti-human IgG
# Description: (§1) This example illustrates in vitro data for anti-c-Met antibody cellular binding EC₅₀ measurements. […] In this example, DU-145 prostate cancer cells, SK-O-V3 ovarian cancer cells, or human umbilical vein endothelial cells (HUVEC) were aliquoted into the wells of a 96-well, v-bottom plate in FACS Buffer (PBS+2% FBS). A 16-point, 2 fold serial dilution curve of antibodies made in FACS Buffer was used to stain the cells. After 1 hr incubation, cells were washed 2× with FACS Buffer and resuspended in PE-conjugated, goat anti-human IgG (γ-chain specific) secondary antibody (Southern Biotech Cat #2040-09). Cells were further incubated for 0.5 hr and then washed 1× with FACS Buffer. Cells were resuspended in FACS Buffer and the median fluorescence intensity in the FL2-A channel was determined using the Intellicyt® HTFC flow cytometer. Data was collected and analyzed on the Intellicyt® HTFC flow cytometer using the ForeCyt® software. ND=Not Determined.
row,EC50,Binder
1,0.153 nM,B1
2,0.159 nM,B2
3,1.15 nM,B3
4,0.2 nM,B4
5,0.852 nM,B5
6,0.41 nM,B6
7,0.467 nM,B7
8,0.191 nM,B8
9,0.12 nM,B9

# Target: T1, c-Met (HGF receptor) expressed on cells
# Experiment: flow cytometry, antibody titration on HUVEC cells, PE anti-human IgG
# Description: as §1
row,EC50,Binder
1,0.148 nM,B1
2,0.606 nM,B3
3,0.376 nM,B7
4,0.19 nM,B8
5,0.132 nM,B9

# Target: T1, c-Met (HGF receptor) expressed on cells
# Experiment: flow cytometry, antibody titration on DU-145 prostate cancer cells, PE anti-human IgG
# Description: as §1
row,EC50,Binder
1,0.2 nM,B1
2,0.362 nM,B2
3,0.26 nM,B4
4,3.35 nM,B5
5,0.34 nM,B6
6,3.36 nM,B7
7,0.251 nM,B8
8,0.212 nM,B9

# Target: T1, c-Met (HGF receptor) expressed on cells
# Experiment: as above
# Remark: another data set of the same source
# Description: as §1, with “cells or” for “cells,”, “cancer” for “cancer cells, or human umbilical vein endothelial”, “cells” for “cells (HUVEC)”, “Determined” for “Determined.”
row,EC50,Binder
1,0.003 nM,B10
2,0.058 nM,B11
3,0.017 nM,B12
4,0.064 nM,B13

# Target: T1, c-Met (HGF receptor) expressed on cells
# Experiment: flow cytometry, antibody titration on SK-O-V3 ovarian cancer cells, PE anti-human IgG
# Remark: another data set of the same source
# Description: as §1, with “cells or” for “cells,”, “cancer” for “cancer cells, or human umbilical vein endothelial”, “cells” for “cells (HUVEC)”, “Determined” for “Determined.”
row,EC50,Binder
1,0.223 nM,B14
2,0.135 nM,B10
3,0.076 nM,B11
4,0.053 nM,B15
5,0.054 nM,B12
6,0.109 nM,B13
